B1: PBXIP1 (parent)
chain: LPVETLGPASRMDPESERALQAPH

Variants of: B1
Assay: protein stability index of a GFP-peptide fusion (GPS, HEK-293T) (PSI 1-6); higher = more stable
Settings: c terminus: a fixed tail appended
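Further: lentivirally expressed fusions sorted by FACS into six bins by GFP to DsRed ratio, PSI derived from sequencing read proportions per bin multiplied by bin number.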

Row | Variant | protein stability index
1 | LPVETRGPASRMDPESERALQAPH [L6R] | 5.28
2 | LPVETSGPASRMDPESERALQAPH [L6S] | 5.44
3 | LPVETTGPASRMDPESERALQAPH [L6T] | 5.37
4 | LPVETVGPASRMDPESERALQAPH [L6V] | 4.45
5 | LPVETWGPASRMDPESERALQAPH [L6W] | 4.72
6 | LPVETYGPASRMDPESERALQAPH [L6Y] | 5.53
7 | LPVETLAPASRMDPESERALQAPH [G7A] | 5.51
8 | LPVETLCPASRMDPESERALQAPH [G7C] | 5
9 | LPVETLDPASRMDPESERALQAPH [G7D] | 5.29
10 | LPVETLEPASRMDPESERALQAPH [G7E] | 5.51
11 | LPVETLFPASRMDPESERALQAPH [G7F] | 4.62
12 | LPVETLHPASRMDPESERALQAPH [G7H] | 4.54
13 | LPVETLIPASRMDPESERALQAPH [G7I] | 4.76
14 | LPVETLKPASRMDPESERALQAPH [G7K] | 5.55
15 | LPVETLLPASRMDPESERALQAPH [G7L] | 5.23
16 | LPVETLMPASRMDPESERALQAPH [G7M] | 4.03
17 | LPVETLNPASRMDPESERALQAPH [G7N] | 5.24
18 | LPVETLPPASRMDPESERALQAPH [G7P] | 4.61
19 | LPVETLQPASRMDPESERALQAPH [G7Q] | 4.99
20 | LPVETLRPASRMDPESERALQAPH [G7R] | 5.12
21 | LPVETLSPASRMDPESERALQAPH [G7S] | 5.42
22 | LPVETLTPASRMDPESERALQAPH [G7T] | 5.37
23 | LPVETLVPASRMDPESERALQAPH [G7V] | 4.95
24 | LPVETLWPASRMDPESERALQAPH [G7W] | 4.63

Row | Variant | protein stability index
25 | LPVETLYPASRMDPESERALQAPH [G7Y] | 4.63
26 | LPVETLGAASRMDPESERALQAPH [P8A] | 5.03
27 | LPVETLGCASRMDPESERALQAPH [P8C] | 5.37
28 | LPVETLGDASRMDPESERALQAPH [P8D] | 5.46
29 | LPVETLGEASRMDPESERALQAPH [P8E] | 5.52
30 | LPVETLGFASRMDPESERALQAPH [P8F] | 4.19
31 | LPVETLGGASRMDPESERALQAPH [P8G] | 5.57
32 | LPVETLGHASRMDPESERALQAPH [P8H] | 4.51
33 | LPVETLGIASRMDPESERALQAPH [P8I] | 4.89
34 | LPVETLGKASRMDPESERALQAPH [P8K] | 4.39
35 | LPVETLGLASRMDPESERALQAPH [P8L] | 4.99
36 | LPVETLGMASRMDPESERALQAPH [P8M] | 4.16
37 | LPVETLGNASRMDPESERALQAPH [P8N] | 5.28
38 | LPVETLGQASRMDPESERALQAPH [P8Q] | 5.1
39 | LPVETLGRASRMDPESERALQAPH [P8R] | 4.73
40 | LPVETLGSASRMDPESERALQAPH [P8S] | 4.64
41 | LPVETLGTASRMDPESERALQAPH [P8T] | 5.31
42 | LPVETLGVASRMDPESERALQAPH [P8V] | 4.83
43 | LPVETLGWASRMDPESERALQAPH [P8W] | 4.01
44 | LPVETLGYASRMDPESERALQAPH [P8Y] | 4.67
45 | LPVETLGPCSRMDPESERALQAPH [A9C] | 3.68
46 | LPVETLGPDSRMDPESERALQAPH [A9D] | 4.54
47 | LPVETLGPESRMDPESERALQAPH [A9E] | 4.56
48 | LPVETLGPFSRMDPESERALQAPH [A9F] | 3.83

Row | Variant | protein stability index
49 | LPVETLGPGSRMDPESERALQAPH [A9G] | 4.33
50 | LPVETLGPHSRMDPESERALQAPH [A9H] | 4.91
51 | LPVETLGPISRMDPESERALQAPH [A9I] | 4.04
52 | LPVETLGPKSRMDPESERALQAPH [A9K] | 4.77
53 | LPVETLGPLSRMDPESERALQAPH [A9L] | 3.18
54 | LPVETLGPMSRMDPESERALQAPH [A9M] | 4.12
55 | LPVETLGPNSRMDPESERALQAPH [A9N] | 4.63
56 | LPVETLGPPSRMDPESERALQAPH [A9P] | 4.92
57 | LPVETLGPQSRMDPESERALQAPH [A9Q] | 4.59
58 | LPVETLGPRSRMDPESERALQAPH [A9R] | 4.81
59 | LPVETLGPTSRMDPESERALQAPH [A9T] | 4.51
60 | LPVETLGPVSRMDPESERALQAPH [A9V] | 2.51
61 | LPVETLGPWSRMDPESERALQAPH [A9W] | 4.42
62 | LPVETLGPYSRMDPESERALQAPH [A9Y] | 4.26
63 | LPVETLGPAARMDPESERALQAPH [S10A] | 5.14
64 | LPVETLGPACRMDPESERALQAPH [S10C] | 4.24
65 | LPVETLGPADRMDPESERALQAPH [S10D] | 4.92
66 | LPVETLGPAERMDPESERALQAPH [S10E] | 5.28
67 | LPVETLGPAFRMDPESERALQAPH [S10F] | 3.75
68 | LPVETLGPAGRMDPESERALQAPH [S10G] | 4.47
69 | LPVETLGPAHRMDPESERALQAPH [S10H] | 4.2
70 | LPVETLGPAIRMDPESERALQAPH [S10I] | 3.95
71 | LPVETLGPAKRMDPESERALQAPH [S10K] | 5.32
72 | LPVETLGPALRMDPESERALQAPH [S10L] | 3.53

Row | Variant | protein stability index
73 | LPVETLGPAMRMDPESERALQAPH [S10M] | 4.3
74 | LPVETLGPANRMDPESERALQAPH [S10N] | 5.01
75 | LPVETLGPAQRMDPESERALQAPH [S10Q] | 4.88
76 | LPVETLGPARRMDPESERALQAPH [S10R] | 4.99
77 | LPVETLGPATRMDPESERALQAPH [S10T] | 4.78
78 | LPVETLGPAVRMDPESERALQAPH [S10V] | 4.44
79 | LPVETLGPAWRMDPESERALQAPH [S10W] | 4.4
80 | LPVETLGPAYRMDPESERALQAPH [S10Y] | 3.85
81 | LPVETLGPASAMDPESERALQAPH [R11A] | 4.18
82 | LPVETLGPASCMDPESERALQAPH [R11C] | 4.63
83 | LPVETLGPASEMDPESERALQAPH [R11E] | 4.48
84 | LPVETLGPASFMDPESERALQAPH [R11F] | 3.6
85 | LPVETLGPASGMDPESERALQAPH [R11G] | 3.95
86 | LPVETLGPASHMDPESERALQAPH [R11H] | 3.71
87 | LPVETLGPASIMDPESERALQAPH [R11I] | 2.99
88 | LPVETLGPASKMDPESERALQAPH [R11K] | 4
89 | LPVETLGPASLMDPESERALQAPH [R11L] | 3.66
90 | LPVETLGPASMMDPESERALQAPH [R11M] | 3.96
91 | LPVETLGPASNMDPESERALQAPH [R11N] | 4.4
92 | LPVETLGPASPMDPESERALQAPH [R11P] | 3.98
93 | LPVETLGPASQMDPESERALQAPH [R11Q] | 4.09
94 | LPVETLGPASSMDPESERALQAPH [R11S] | 4.01

From the supplement of paper PMC10567573
